Results as given in patent US20220204643A1 (published 2022).
Blank lines part the entries; values can stand above or below the binder they belong to.

Key:
[1] = target: T1, extended synaptotagmin 2 (human, UniProt A0FGR8 564-921)
T1 construct: HuProt array protein; labelled _frag; also called ESYT2_frag
T1 sequence: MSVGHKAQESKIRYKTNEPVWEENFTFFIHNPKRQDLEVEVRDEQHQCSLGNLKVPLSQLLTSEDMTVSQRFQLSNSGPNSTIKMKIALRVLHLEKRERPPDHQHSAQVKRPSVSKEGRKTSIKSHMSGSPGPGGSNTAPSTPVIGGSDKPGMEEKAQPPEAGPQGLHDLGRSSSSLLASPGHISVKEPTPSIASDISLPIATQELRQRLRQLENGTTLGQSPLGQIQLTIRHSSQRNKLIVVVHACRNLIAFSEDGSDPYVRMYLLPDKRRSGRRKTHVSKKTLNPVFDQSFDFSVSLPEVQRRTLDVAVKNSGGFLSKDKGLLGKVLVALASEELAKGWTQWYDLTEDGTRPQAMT

[2] = target: T2, KH RNA binding domain containing, signal transduction associated 2, transcript variant 2 (human, UniProt Q5VWX1 1-349)
T2 construct: HuProt array protein, full-length recombinant from yeast; also called KHDRBS2
T2 sequence: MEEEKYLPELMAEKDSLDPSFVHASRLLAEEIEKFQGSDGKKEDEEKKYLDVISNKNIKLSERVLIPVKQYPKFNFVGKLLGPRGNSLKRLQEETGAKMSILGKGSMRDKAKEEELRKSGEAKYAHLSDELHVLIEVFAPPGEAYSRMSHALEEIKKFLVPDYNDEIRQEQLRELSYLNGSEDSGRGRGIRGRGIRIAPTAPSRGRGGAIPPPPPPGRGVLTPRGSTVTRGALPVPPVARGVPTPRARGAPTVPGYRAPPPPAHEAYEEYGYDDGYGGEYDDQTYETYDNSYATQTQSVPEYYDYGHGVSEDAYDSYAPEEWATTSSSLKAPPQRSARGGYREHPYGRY

[3] = target: T3, homeobox and leucine zipper encoding (human, UniProt Q8IX15 25-550)
T3 construct: HuProt array protein, full-length recombinant from yeast; also called HOMEZ
T3 sequence: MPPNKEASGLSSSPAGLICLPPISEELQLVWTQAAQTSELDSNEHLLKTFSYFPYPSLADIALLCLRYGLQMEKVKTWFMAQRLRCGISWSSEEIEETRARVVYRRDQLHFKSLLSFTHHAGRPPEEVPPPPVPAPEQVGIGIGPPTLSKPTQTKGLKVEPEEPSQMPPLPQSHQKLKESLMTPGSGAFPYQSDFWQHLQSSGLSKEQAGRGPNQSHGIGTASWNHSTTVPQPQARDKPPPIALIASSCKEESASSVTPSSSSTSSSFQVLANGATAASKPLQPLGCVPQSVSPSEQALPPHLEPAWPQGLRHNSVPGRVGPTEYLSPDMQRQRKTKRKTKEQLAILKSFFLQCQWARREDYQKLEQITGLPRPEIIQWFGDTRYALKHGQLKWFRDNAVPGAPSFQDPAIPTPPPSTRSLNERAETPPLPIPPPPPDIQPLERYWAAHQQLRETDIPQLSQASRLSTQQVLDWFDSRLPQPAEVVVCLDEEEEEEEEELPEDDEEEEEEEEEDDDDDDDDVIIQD

[4] = target: T4, BAR/IMD domain containing adaptor protein 2, transcript variant 3 (human, UniProt Q9UQB8 1-511)
T4 construct: HuProt array protein, full-length recombinant from yeast; also called BAIAP2
T4 sequence: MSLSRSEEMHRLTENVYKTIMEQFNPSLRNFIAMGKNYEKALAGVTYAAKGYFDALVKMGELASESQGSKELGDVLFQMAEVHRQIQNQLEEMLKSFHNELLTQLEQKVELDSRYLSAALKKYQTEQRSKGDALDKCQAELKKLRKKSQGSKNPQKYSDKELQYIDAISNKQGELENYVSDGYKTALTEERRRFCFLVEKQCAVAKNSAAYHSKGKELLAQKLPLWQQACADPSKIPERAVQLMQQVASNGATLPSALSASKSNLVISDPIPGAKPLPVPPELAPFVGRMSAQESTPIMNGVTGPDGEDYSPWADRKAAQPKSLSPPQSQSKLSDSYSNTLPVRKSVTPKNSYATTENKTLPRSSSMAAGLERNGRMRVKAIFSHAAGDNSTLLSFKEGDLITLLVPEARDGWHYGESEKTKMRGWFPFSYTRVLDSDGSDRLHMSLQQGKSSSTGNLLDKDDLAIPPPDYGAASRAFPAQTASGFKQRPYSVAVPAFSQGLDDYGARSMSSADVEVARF

[5] = target: T5, TruB pseudouridine synthase family member 1 (human, UniProt Q8WWH5 2-349)
T5 construct: HuProt array protein, full-length recombinant from yeast; also called TRUB1
T5 sequence: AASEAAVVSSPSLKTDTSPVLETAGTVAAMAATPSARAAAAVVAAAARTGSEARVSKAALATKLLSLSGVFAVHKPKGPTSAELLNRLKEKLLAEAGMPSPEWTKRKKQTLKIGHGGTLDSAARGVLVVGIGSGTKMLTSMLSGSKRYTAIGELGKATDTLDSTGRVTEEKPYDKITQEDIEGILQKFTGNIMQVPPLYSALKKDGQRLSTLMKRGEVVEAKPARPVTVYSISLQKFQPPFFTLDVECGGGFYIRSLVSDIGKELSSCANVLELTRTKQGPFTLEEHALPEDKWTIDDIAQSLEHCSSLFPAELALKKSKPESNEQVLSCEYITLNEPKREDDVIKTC

[6] = target: T6, phospholipid scramblase 4, transcript variant X4 (human, UniProt Q9NRQ2 1-329)
T6 construct: HuProt array protein, full-length recombinant from yeast; also called PLSCR4
T6 chain: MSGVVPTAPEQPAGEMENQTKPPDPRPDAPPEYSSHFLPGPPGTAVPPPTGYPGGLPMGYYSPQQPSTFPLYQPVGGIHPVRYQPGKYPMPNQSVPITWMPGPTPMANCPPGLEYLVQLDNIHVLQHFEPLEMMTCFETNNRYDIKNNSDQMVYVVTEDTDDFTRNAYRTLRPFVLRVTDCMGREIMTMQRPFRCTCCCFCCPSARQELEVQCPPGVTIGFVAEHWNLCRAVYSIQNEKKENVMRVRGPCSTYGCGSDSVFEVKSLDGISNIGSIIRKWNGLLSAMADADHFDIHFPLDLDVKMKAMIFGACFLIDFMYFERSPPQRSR

[7] = target: T7, FA complementation group G (human, UniProt O15287 1-622); test: protein array
T7 construct: on protein array; also called FANCG
T7 sequence: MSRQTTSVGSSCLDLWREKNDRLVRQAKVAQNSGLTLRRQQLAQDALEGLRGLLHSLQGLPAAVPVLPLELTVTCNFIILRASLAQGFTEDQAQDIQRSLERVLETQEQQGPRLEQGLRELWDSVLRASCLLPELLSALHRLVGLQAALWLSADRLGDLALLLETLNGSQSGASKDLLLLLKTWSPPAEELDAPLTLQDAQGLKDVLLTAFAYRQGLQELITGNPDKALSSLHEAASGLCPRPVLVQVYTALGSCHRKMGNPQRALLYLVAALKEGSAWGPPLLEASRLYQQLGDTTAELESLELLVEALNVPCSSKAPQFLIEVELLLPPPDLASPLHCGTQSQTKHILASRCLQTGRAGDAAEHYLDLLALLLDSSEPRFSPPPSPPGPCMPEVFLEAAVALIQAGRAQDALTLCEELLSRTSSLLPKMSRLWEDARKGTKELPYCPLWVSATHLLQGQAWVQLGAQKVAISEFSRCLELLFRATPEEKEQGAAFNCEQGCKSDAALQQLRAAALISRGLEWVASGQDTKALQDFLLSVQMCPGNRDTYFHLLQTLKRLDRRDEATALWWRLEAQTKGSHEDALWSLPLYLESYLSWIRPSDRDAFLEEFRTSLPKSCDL

[8] = target: T8, sorting nexin 33, transcript variant 1 (human, UniProt Q8WV41 1-574)
T8 construct: HuProt array protein, full-length recombinant from yeast; also called SNX33
T8 sequence: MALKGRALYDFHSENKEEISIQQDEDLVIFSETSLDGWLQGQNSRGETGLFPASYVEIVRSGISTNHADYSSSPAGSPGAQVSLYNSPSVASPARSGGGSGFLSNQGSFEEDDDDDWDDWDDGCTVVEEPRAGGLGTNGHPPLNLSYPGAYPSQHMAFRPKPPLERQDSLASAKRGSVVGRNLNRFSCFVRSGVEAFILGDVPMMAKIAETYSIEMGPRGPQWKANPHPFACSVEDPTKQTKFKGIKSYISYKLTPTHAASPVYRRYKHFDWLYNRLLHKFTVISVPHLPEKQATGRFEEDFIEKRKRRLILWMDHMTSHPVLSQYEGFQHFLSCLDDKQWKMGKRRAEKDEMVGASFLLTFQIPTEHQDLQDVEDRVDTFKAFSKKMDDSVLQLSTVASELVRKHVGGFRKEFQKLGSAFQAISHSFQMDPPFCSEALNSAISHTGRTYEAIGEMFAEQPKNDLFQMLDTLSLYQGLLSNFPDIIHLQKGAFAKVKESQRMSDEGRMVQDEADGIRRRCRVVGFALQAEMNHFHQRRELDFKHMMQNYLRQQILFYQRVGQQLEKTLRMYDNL

binding result [7]: binds
B5: TBRE1024 (antibody, V domains shown)
VH: PVQLQESGPGLVKPSETLSLTCTVSGGSISSDNYYWSWLRQHPGKGLEWIGYIYFSVTTYYNPSLKSRVTISLDTSKNQFSLKLSSVTAADTAVYYCASGYVSFDLWGQGTLVTVSS
VL: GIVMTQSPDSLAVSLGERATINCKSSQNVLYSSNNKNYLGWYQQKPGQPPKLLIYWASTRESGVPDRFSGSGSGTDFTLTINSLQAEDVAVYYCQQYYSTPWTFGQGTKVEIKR
notes: VH/VL only

binding result [8]: binds
B6: TCER1006 (antibody, V domains shown)
VH: EVQLVQSGAEVKKPGESLKISCKGSGYSFTSFWIGWVRQMPGKGLEWMGIIFPADSDTRYSPSFQGQVIISVDKSISTAYLQWSSLKASDTAMYYCARRGVSGGSAWTYYNFFDPWGQGTLVTVAS
VL: PSVLTQPPSVSAAPGQKVTISCSGSSSNIDNNYVSWYQQLPGTAPKLLIYENNKRASGIPDRFSGSKSGTSATLGITGLQTGDEADYYCGTWDSSLSPGGVFGGGTKLTVLG
notes: detected with anti-human IgG Fc

The remaining lines, values behind:

B1: TCOL1004 (antibody, V domains shown)
VH: QVQLQESGPGLVKPSQTLSLTCIVSGGSISGDKNFWSWVRQHPEKGLEWLGYISYNGNTYYNPSLISRIIISLDTPKNLFSLRLSSVTVADTAIYYCAREVDIRGDSDAFDIWGRGTVVTVSS
VL: EIVMTQSPATLSVSPGERATLSCRASQSVSTNLAWYQQRPGQAPRLFIFGASTRATGIPARFSGSGSGTEFTLTISSPQPEDSAVYYCQQYTTRPLTFGGGTKVEIKR
notes: as for B6
binding result [1]: binds

B2: TCHO1001 (antibody, V domains shown)
VH: PVHLVQSGAEVKKPGSSVKVSCKLSGGIFSYFAIIWVRQAPGQGLEWMGTIIPIFGTSNYAEKFQDRVAIVADEATSTVYMEVNSLRSEDTAIYFCARDSEVEKSDGYMASTAEYFQLWGQGTLVTVSS
VL: not shown
notes: detected with anti-human IgG Fc; also called TCH01001
binding result [2]: binds

B3: TCOL1006 (antibody, V domains shown)
VH: EVQLVESGGGLVQPGGSLRLSCAASGFPPRSFAMSWVRQAPGKGLEWVSSISGLGNSIYYAESVKGRFITSRDNSKSTVFLLMNSLRAEDTAVYYCAKSAFGGVPDGFDIWGQGTMVTVSS
VL: QSVVTQPPSASGPPGQTVTISCSGGRSNVASHAVHWYQHLPGTAPKLLIYNDHQRPSGVPDRFSGSKSGPSASLAISGLRSEDEADYYCATWDDSLGGRVVFGGGTKLTVLG
notes: as for B6
binding result [3]: binds
binding result [4]: binds

B4: TCER1003 (antibody, V domains shown)
VH: QITLKESGPTLVKPTQTLTLTCTFSGFSLTTTDVGVGWIRQPPGKALEWLTIIYWDDDERYSPSLKSRLTITKDTSKNQVVLSMTNMDPVDTATYYCARVYSTKWDFDYWGQGTLVTVSS
VL: VSSELTQDPAVSVALGQTVRITCQGDSLRRYYVSWYRQKPGEAPVVVIYGKNNRPSWIPDRLSGSSSGNTASLTITGAQAEDEADYYCCSRDSSGNPWVFGGGTKLTVLG
notes: as for B6
binding result [5]: binds
binding result [6]: binds
